For some assays here: This sample holds only a part of the variants without activity.
B1: TPR 5TU (parent)
chain: GGAUCUUCUCGAUCUAACAAAAAAGACAAAUCUGCCACAAAGCUUGAGAGCAUCUUCGGAUGCAGAGGCGGCAGCCUUCGGUGGCGCGAUAGCGCCAACGUUCUCAACUAUGACACGCAAAACGCGUGCUCCGUUGAAUGGAGUUUAUCAUG
B2: TPR t1 (parent)
chain: GACCAAUCUGCCCUCAGAGCUCGAGAACAUCUUCGGAUGCAGAGGAGGCAGGCUUCGGUGGCGCGAUAGCGCCAACGUCCUCAACCUCCAAUGCAUCCCACCACAUGAUGAUGCCUGAAGAGCCUUGGUUUUUUG

Variants of: B1
Assay: polymerase ribozyme fitness, log enrichment relative to wild type (log ratio); higher = more active; in vitro selection for triplet polymerase activity
Outline: (§1)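 Input and output libraries were sequenced on Illumina after a single in vitro selection round, run in triplicate on PCR-built, transcribed mutant libraries of each subunit of a heterodimeric triplet polymerase ribozyme. Selection annealed libraries to a biotinylated primer, the partner subunit and triplets, incubated them frozen at −7 °C, then gel-excised extended constructs for streptavidin-bead capture and RT-PCR. Genotypes with ≥10 input reads and ≥1 read per output were kept. Fitness is the logarithm, taken in base 2, of genotype enrichment divided by wild-type enrichment, using inverse-variance-weighted replicate averages.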

| Variant | polymerase ribozyme fitness (log ratio) |
| --- | --- |
| A3C G48U C69U | -2.88 |
| A3C G58C C95G C129A A142C | ≤ -4.2 |
| A3C C76U C96A | -0.525 |
| A3C A49C C96A | ≤ -4.2 |
| A3C A97U U135G G140C | ≤ -4.2 |
| A3C A16C G48A C96G | -3.42 |
| A3C A24G A73U C93A | ≤ -4.2 |
| A3C C10A G11U U55A G81C C85U G128A | ≤ -4.2 |
| A3C G58A C87U | -0.495 |
| A3C U4A A121G G141A A142C | -4.03 |
| A3C C36U G83A | -3.09 |
| A3C C18G U56A C57A C93G U146G | ≤ -4.2 |
| A3C U31G C51U A60C A122C G140A | ≤ -4.2 |
| A3C C8U C18U A49G C87A | ≤ -4.2 |
| A3C C36G A60C G83U C118G U151C | ≤ -4.2 |
| A3C U9A A30U G48A U53A C54U G67U C93G G126A U135G | ≤ -4.2 |
| A3C A30U C93U A115G | ≤ -4.2 |
| A3C C8U U61G G71C G80C C93A C125G U127C U145C G152U | ≤ -4.2 |
| A3C C32U G59A | -3.67 |
| A3C C10G A49C C54U A60U A91C G100A G136U U139C | ≤ -4.2 |
| A3C C69A C87G U146C C149U U151G | ≤ -4.2 |
| A3C A41G G84A G126C | -0.499 |

| Variant | polymerase ribozyme fitness (log ratio) |
| --- | --- |
| A3C A24G C36U A41U C72U C85A A91U U151A G152C | ≤ -4.2 |
| A3C C35U C75A C129G | ≤ -4.2 |
| A3C G70C C87G C96G A107G U146G | ≤ -4.2 |
| A3C A28G A37U A52U G83U | ≤ -4.2 |
| A3C U6A C35A C95U U102C C103G G143U | ≤ -4.2 |
| A3C C10G C57A G83A | -3.78 |
| A3C A16G C99G U102G A106U | ≤ -4.2 |
| A3C C85U | -1.46 |
| A3C U6G G46C C75A C79A G86A C103G G126U | ≤ -4.2 |
| A3C G46C A49G G92A U104G A113U G124A A142U | ≤ -4.2 |
| A3C U4A | 0.257 |
| A3C C57U U82G G84A U90A C93G C149U | ≤ -4.2 |
| A3C A52C U55A C57A G81A G94C | -4.03 |
| A3C A16G | -1.12 |
| A3C C93A A98U | -1.79 |
| A3C C10G A29U U33G C38U C63U | ≤ -4.2 |
| A3C G34A C96G | -3.63 |
| A3C G50U | -1.07 |
| A3C A23U U44A U45C C95U C105G A106C C123U A137G | ≤ -4.2 |
| G1U | 0.22 |
| A3C A60G | -0.264 |
| A3C A22U C85G | -2.18 |

| Variant | polymerase ribozyme fitness (log ratio) |
| --- | --- |
| A3C A16U C93G C118U U130G | ≤ -4.2 |
| A3C U13G G62A A66C U145A | ≤ -4.2 |
| A3C G58C C63U C95G | -1.68 |
| A3C U4G A49U U61C G70A G92U | ≤ -4.2 |
| A3C C85U G141C | -2.07 |
| A3C U45A G67U G71C G80C C95A C103A | ≤ -4.2 |
| A3C A12U U56A C93A A98U A107G C129U | ≤ -4.2 |
| A3C C63G C118U | -0.545 |
| A3C G86A C125U | -2.79 |
| A3C C87G | -3.29 |
| A3C C85U C96U | -0.556 |
| A3C C14G A39C G81U C96U C105U A121U U134C U135C U148C | ≤ -4.2 |
| A3C U4G A21C C38G A41C G68A G81A C85U C95U C116G | ≤ -4.2 |
| A3C C18U A49U G62C A66C G67U C96A C99G U134C U145C A147C U151G | ≤ -4.2 |
| A3C U4A U56G C57U C132A | -4.08 |
| A3C A21C C35A C85U C125U | ≤ -4.2 |
| A3C A20C C38U A41C U53A G71A C93A G94U G126C | ≤ -4.2 |
| A3C U7G C87U C93G A98G G100U A120C U148A U151G | ≤ -4.2 |
| A3C C14A A26G G50C A91G G117A C125U G140A G143C | ≤ -4.2 |
| A3C C85A U130A C132G | ≤ -4.2 |
| A3C U7A G84U U144G | -2.38 |
| A3C C10G G11U A47U G48A G58C U82G G83A A137U | ≤ -4.2 |

| Variant | polymerase ribozyme fitness (log ratio) |
| --- | --- |
| A3C C14U A16G G59A C87A | ≤ -4.2 |
| A3C U44G U56A G84C | ≤ -4.2 |
| A3C C43U A89U G92A C125G | ≤ -4.2 |
| A3C C27U C35G C57A G84A C87U | ≤ -4.2 |
| A3C G88C | -4.14 |
| A3C C85U C95U C114U G133C | ≤ -4.2 |
| A3C U13G A23U C87U A91U C96U | ≤ -4.2 |
| A3C U6A | -0.461 |
| A3C A12G G25C A52C C93U C116A | -3.91 |
| A3C C8G C76U C87A A106U | ≤ -4.2 |
| A3C U7G C14U A52G | -3.28 |
| A3C U4G G58C C93U C149U | -3.55 |
| A3C G25A A40U G71A C85U C96U A119C A121G G140C | ≤ -4.2 |
| A3C A17U A26U C54A C75U C93U C103G G143C | ≤ -4.2 |
| A3C C43U U53A U61G U101G U139A | ≤ -4.2 |
| A3C A16U C54A C87U U104G G141C | ≤ -4.2 |
| A3C C5U C43U G70C G84A A106U A113C | ≤ -4.2 |
| A3C A28U U77A C93U C129A U148G | ≤ -4.2 |
| A3C U4A U6C U15C A17G C38U C54U C72U G86U U127G | ≤ -4.2 |
| A3C C14G A52C C93U G141U | -4.16 |

Variants of: B2
Assay: as above
Outline: as §1

| Variant | polymerase ribozyme fitness (log ratio) |
| --- | --- |
| A103U G120C C124U | -4.96 |
| C13A U81A | -3.27 |
| G19A G42U G71U G122A | -3.83 |
| A18U G42U G63C A66G C123U | -4.29 |
| A27U C72U C85G A111U U132A | -4.04 |
| A95G U125A | -0.382 |
| G39U G120U | -0.816 |
| G48C C62U C64U C97U A100U C123A | -2.01 |
| U33A G36U G69U C99G | -5.44 |
| U78C | -0.247 |
| U67C C88A | -5.76 |
| A26U G39A C49G G61A C88U C124G | -3.77 |
| C3A C56A G71A G127U | -3.57 |
| G42U G61U C88G C101A G120C | -3.56 |
| C53G U130A | -0.508 |
| G44C C89U | -1.15 |
| U9G A27G A37U | -0.779 |
| A84C C94G U96C C124U | -0.869 |
| G19U U55C | -4.3 |
| C20A C49A G63U | -4.62 |
| U9A G69C | -0.589 |

| Variant | polymerase ribozyme fitness (log ratio) |
| --- | --- |
| C8A U9G C85G C89A U126G G127C | -2.22 |
| A2G C40U U78A C86U G117A | -3.78 |
| C8U C70G C97U C124U U131A | -1.27 |
| C11A C13A A74C | -2.72 |
| G48A G117C | -3.17 |
| C20U U54A C73G U133A | -1.99 |
| C11G C123U | 0.785 |
| G17U C73G C124G G128C | -2.67 |
| A5U C34G | -6.92 |
| C11G G61C A66U A75C C114U | -3.81 |
| U67C C88A G117C | -5.9 |
| C76U | -0.164 |
| C8G C97U C102U | -1.4 |
| C53U C62A U78C | -1.46 |
| G36A C89A | -2.49 |
| C13A A90U | -3.48 |
| C82U C88A | -0.557 |
| U9A A37C G63A | -0.704 |
| C20G C56A | -4.28 |
| U38G A105C U112A G122C | -5.07 |
| C20U A46C G69C C101U | -4.11 |

| Variant | polymerase ribozyme fitness (log ratio) |
| --- | --- |
| G36U G60C A84C | -1.87 |
| A37U C72U | -1.56 |
| C3U U14C C62U A118G U129C | -2.13 |
| C20U A100U G120U | -1.89 |
| C53U G61C | 0.349 |
| A18U C40A C70A A121C | -5.25 |
| C94U A100G G120U | -3.95 |
| A2G G77A C80A C124A | -0.514 |
| C20A G48A C49G G61A U87G A90C | -5.02 |
| C4A G117C | -4.54 |
| G69C U116C | -1.92 |
| C72U U132A | -0.0764 |
| C28G G71U | -2.39 |
| C34A G35A C86G U112C | -4.41 |
| G10U G35U A66U G69U G93A | -5.9 |
| U14G A24G G61A U78C | -4.74 |
| C12U G42A A95U | -1.64 |
| A5U C13U A16G G69C U92G C123A U132A | -2.65 |
| C49G C115U | -1.48 |
| G61C C101U | -1.77 |
| U38G C49A G77U C85G C115A | -3.84 |

| Variant | polymerase ribozyme fitness (log ratio) |
| --- | --- |
| C28A C70U | -4.86 |
| C8A C28A G63U G77C C86A U112C | -6.46 |
| G48A U112A U125G G127C | -1.12 |
| A26U C82G C97A C98A U112A | -6.74 |
| C11A U78C | -0.895 |
| C40A U129G U131A G135C | -4.21 |
| G71A U112C | 0.03 |
| A41U C72G U78A A83U | -2.44 |
| C102U U106C G113A A121C U131G | -3.34 |
| A50C C72U G77U C99A U116A G120C C123U | -8.09 |
| G57U C89A | -1.5 |
| U21A C31U U78G C101G U106A G113C | -4.88 |
| A6C U7A A27G U78C G113A | -1.35 |
| C15G C62G | -5 |
| U87A U106A | 0.566 |
| G45A A121U | 1.1 |
| U9G C56U G65C A105U U109C | -6.39 |
| C11A C73U C76A U78G U131A | -4.06 |

Source: the RNAGym collection of RNA variant scans (doi:10.1073/pnas.2313332121)
